We go through 17 molecules from US20090017017A1 (SYMPHOGEN A S, published 2009).

The labels stand for the following.
T1: Rhesus D antigen (human, UniProt Q02161 2-417)
T1 construct: whole, on cells; Presented on RhD(+) erythrocytes; also called RhD; RhD antigen
T1 sequence (looked up): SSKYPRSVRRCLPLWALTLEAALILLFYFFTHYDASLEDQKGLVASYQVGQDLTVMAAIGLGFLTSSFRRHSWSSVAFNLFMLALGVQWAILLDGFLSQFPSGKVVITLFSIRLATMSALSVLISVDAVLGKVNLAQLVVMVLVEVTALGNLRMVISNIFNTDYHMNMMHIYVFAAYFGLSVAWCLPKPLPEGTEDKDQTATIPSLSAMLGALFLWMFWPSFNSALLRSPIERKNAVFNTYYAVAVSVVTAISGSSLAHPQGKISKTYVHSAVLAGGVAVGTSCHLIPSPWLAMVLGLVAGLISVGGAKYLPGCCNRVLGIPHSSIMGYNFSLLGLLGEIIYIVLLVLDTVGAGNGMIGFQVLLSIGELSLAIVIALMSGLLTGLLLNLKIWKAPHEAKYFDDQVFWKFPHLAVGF

B1: RhD206.160C06 (Fab, V domains shown)
VH: QVQLVESGGGVVQPGRSLRLSCAASGFTFSSYGMHWVRQAPGKGLEWVAIIWFDGSNKYYADSVKGRFTISRDNSKNTLYLQINSLRAEDTAVYYCAKEHGYYSSSWYRNYYYYAMDVWGQGTTVTVSS
VL: DIQMTQSPSSLSASVGDRVTITCRASQSIRRYLNWYQKKPGKAPKLLIYAASSLQSGVPSRFSGSGSGTDFTLTISSLQPEDFATYYCQQSYRTQGLTFGGGTKVEIKR
notes: Tested as Fab in E. coli periplasmic extract (VH on human gamma 1 CH1, vector Em351)
B2: RhD245.164E06 (Fab, V domains shown)
VH: EVQLVQSGGGVVQPGRSPRLSCAASGFTFSSYGMHWVRQAPGKGLEWVAFIWYDGSNKYYADSVKGRFTISRDNSKNTLYLQMNSLRAEDTAVYYCARDLRNHVFWSGYSTSFDYWGQGTLVTVSS
VL: DIQMTQSPSSLSASVGDGITITCRASQSVRSYLNWYQQKPGKAPELLIYAASRLQSGVPSRFSGSGSGTDFTLTISSLQPEDFATYYCQHSYSTPVTFGQGTKVEVKR
notes: as for B1
B3: RhD158.119B06 (Fab, V domains shown)
VH: EVQLVETGGGVVQPGRSLRLSCAASGFSFSNFGFHWIRQSPGKGLEWVAVIWYDGSNRFYADSVKGRFTISRDSSKNMLFLQMDSLRAEDTAVYYCAREISMKVVIRRHYVMDVWGHGTTVTVSS
VL: DIQMTQSPSPLSASVGDRVSITCRASRGISNSLAWYQQKPGKVPKLLIYAASTLQSGVPSRFSGGGSGTDFTLTISSLQPEDVATYYCHTYNSAPFAFGPGTKVDIKR
notes: as for B1
B4: RhD239.126F09 (Fab, V domains shown)
VH: QVQLVESGGGVVQPGTSLRLSCAASGFTFRTYGMHWVRQAPGKGLEWVAYIWYDGSNKYYADSVKGRFTISRDNSKSTLNLQMNSLRAEDTAVYYCAREIASRGYSRYLYYFDSWGQGTLVTVSS
VL: DIQLTQSPSSLSASVGDRVTITCRASQSISSYLNWYQQKPGKAPKLLISAASSLQSGVPSRFSGSGSGTDFTLTISSLQREDYATYYCQQSYSTPPYTFGQGTKLEIKR
notes: as for B1
B5: RhD292.109A02 (Fab, V domains shown)
VH: QVQLVETGGGVVQPGRSLRLSCAASGFTFSSYGMHWVRQAPGKGLEWVAVIWSDGSNKYYADSVKGRFTISRDNSRNTLYLQMNSLRAEDTAVFYCAREQGGYSSSWYRRYYYYYMDVWGQGTTVTVSS
VL: DIQMTQSPSSLSASVGDRVTITCRASQSISSWLNWYQQKPGKAPNLLIFAASTLQSGVPSRFSGSGSGTDFTLTISSLQPEDFATYYCQQSYSSSVYTFGQGTKLEIKR
notes: as for B1
B6: RhD240.125A09 (Fab, V domains shown)
VH: QLQLQESGPGLVKPSGTLSLTCAVSGGSMRSSNWWTWVRQPPGKGLEWIGEIHHGGSTNYNPSLQSRVTISVDKSKNRFSLKLSSVTAADTAVYHCARGRSYYDSSGHSFRGLVPFDIWGQGTMVTVSS
VL: DIQMTQSPSTLSASVGDRVTITCRASQSISSWLAWYQQKPGKAPKLLVYKTSSLEGGVPSRFSGSGSGTEFSLTIFRLQSDDFATYYCQQYNSFPYTFGQGTKLEFTR
notes: as for B1
B7: RhD205.160B12 (Fab, V domains shown)
VH: EVQLVETGGGLVKPGGSLRLSCAASGFTFRSYSMNWVRQAPGKGLEWVSSIGSSSTYTYSADSVKGRFTISRDNAKNSLYLQMNSLRAEDTAVYYCARGEPLNYDYIWGGYRFTIHWGQGTLVTVSS
VL: DIQLTQSPSFLSASVGDRVTITCRASHGISSYLAWYQQKPGKAPNLLIFPASTLQSGVPSRFSGSGSGTEFTLTISSLRPEDFATYYCQQLNSYSRWAFGQGTKVEVKR
notes: as for B1
B8: RhD208.179B11 (Fab, V domains shown)
VH: EVQLVESGGGVVQPGRSLRLSCAASGFTFRTSAMHWVRQAPGKGLEWVAVIWYDGSNKYYADSVKGRFTISRDNSKNTLYLQMNSLRAEDTAVYYCAREMVSYSSSWYRRYYYYNMDVWGKGTTVTVSS
VL: QAVVTQEPSLTVSPGGTVTLTCASSTGSVTSGYYPNWFQQKPGQAPRPLISGTSNKLSWTPARFSGSLLGGKAALTVSGVQPEDEAVYYCLLYYGVPQPVVFGGGTKLTVLG
notes: as for B1
B9: RhD246.179B10 (Fab, V domains shown)
VH: EVQLVETGGGVVQPGRSLRLSCAASGFTFSSYGMHWVRQAPGKGLEWVAVIWYDGSNKYYADSVKGRFTISRDNSKNTLYLQMNSLRAEDTAVYYCAREMVSYSSSWYRRYYYYNMDVWGKGTTVTVSS
VL: LSSELTQDPAVSVTLGQTVRITCQGDSLRHSYASWYQQKPGQAPILVIYGKNIRPSGIPDRFSGSTSGNTASLTITGAQAEDGGDYYCNSRDTSTDHYVFGDGTRVTVVG
notes: as for B1
B10: RhD242.181A03 (Fab, V domains shown)
VH: EVQLVESGGGVVQPGRSLRLSCAASGFTFSNHGMHWVRQAPGKGLEWVAVIWYDGSNKYYADSVKGRFTISRDNSKNTLYLQMNSLRAEDTAVYYCAREMASYSSSWYRRYYYYVMDVWGKGTTVTVSS
VL: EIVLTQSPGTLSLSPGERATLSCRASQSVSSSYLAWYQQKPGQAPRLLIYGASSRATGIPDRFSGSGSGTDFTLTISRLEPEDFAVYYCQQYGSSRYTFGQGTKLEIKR
notes: as for B1
B11: RhD294.119E10 (Fab, V domains shown)
VH: QVQLVESGGGVVQPGRSLRLSCAASGFSFSNYGMHWVRQAPGKGLEWVAVISYDGSEKYYADSVKGRFTISRDNSKKTLYLQMNSLRAEDTAMYYCKNKVGATRRAVVAVDIWGQGTMVTVSS
VL: EIVLTQSPGTLSLSPRERATLSCRANQYVNSNHLAWYQQKPGQAPRLLLYGASRRATGIPDRFSGSGTGTDFTLIISRLEPEDFAVYFCQLYDHSRPMYTFGQGTKLEIKR
notes: as for B1
B12: RhD241.119B05 (Fab, V domains shown)
VH: QVQLQESGPGLVKPSETLSLICTVSGGSISSNYWSWIRQPPGKGLEWIGYIYYSGNTNYNPSLKSRVTISLDTSKNQFSLKLRSVTAADTAVYYCAREWRQYGSGIRGSRYYYGMDVWGQGTLVTVSS
VL: EIVLTQSPVTLSLSPGERATLSCRASQSVSSGYLAWYQQKPGQAPRLLIYGTSIRATGIPDRFSGSGSGTDFTLTISRLEPEDFAVYYCQQYGSSPLYSFGQGTKVDIKR
notes: as for B1
B13: RhD295.119B11 (Fab, V domains shown)
VH: QVQLVESGGGLVQPGGSLRLSCVGSGFTFRSFDMNWVRQAPGKGLEWISYINSRGNTRYYVDSVKGRFTISRDNAKNSLYLQMNSLRAEDTAVYYCARDLYGDYDPKSYYYYGMDVWGQGTMVTVSS
VL: EIVLTQSPGTLSLSPGERATLSCRASQSFSSGYLAWYQQKPGQAPRLLIYGASNRATGIPDRFSGSGSGTDFTLTISRLEPEDFAVYYCQHYGSSPPITFGQGTRLEIKR
notes: as for B1
B14: RhD159.119B09 (Fab, V domains shown)
VH: EVQLVETGGGLVQPGGSLRLSCAASGFSFRSYDMNWVRQAPGKGLEWVSYISGRGSTTYYADSVKGRFTISRDNAKNSLYLQMNSLRAEDTAVYYCARDLYGDYDPKSYYYYAMDVWGHGTTVTVSS
VL: EIVMTQSPGTLSLSPGERATLSCRASHTVSSGYLAWYQQKPGQAPRLLIYGASNRATGVPDRFGGSGSGTDFTLTISRLEPEDSAVYFCQQYGTSPGVTFGQGTRLEIER
notes: as for B1
B15: RhD243.109A05 (Fab, V domains shown)
VH: QVQLVESGGGVVQPGRSLRLSCAASGFTFSTYGMHWVRQAPGKGLEWVAVIWYDGSQKYYVDSVKGRFTISRDNSKNTLYLQMNSLRAEDTAVYYCAREVAVRGVIRYYYGMDVWGQGTTVTVSS
VL: DIQLTQSPSSLAASVGDRVIITCRSGQGIRNYLNWYQQKPGKAPKLLIYAASFLQSGVPSRFSGSGSGTDFTLTISSLQPEDFATYNCQQSYSDPWTFGQGTKVEIKR
notes: as for B1
B16: RhD293.109A09 (Fab, V domains shown)
VH: EVQLVESGGGVVQPGRSLRLSCAASGFTFNTYGMHWVRQAPGKGLEWVAVIWYDGSNKYYADSVKGRFTISRDNSKNTLYLQMNSLRAEDTAVYYCAREVAVRGVIRYYYAMDVWGQGTTVTVSS
VL: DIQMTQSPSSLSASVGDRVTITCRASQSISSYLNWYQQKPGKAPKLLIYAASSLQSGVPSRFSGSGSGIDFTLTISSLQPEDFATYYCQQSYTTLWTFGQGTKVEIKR
notes: as for B1
B17: RhD244.158B10 (Fab, V domains shown)
VH: QVQLVESGGGVVQPGRSLRLSCAASGFSFSSYGMHWVRQAPGKGLEWVAIIWYDGSNKLYADSVKGRFTISRDNSRNTLYLQMSSVRAEDTAVYYCARDSVRGVSRWGTQKYYAMDVWGQGTTVTVSS
VL: DIQMTQSPSSLSASVGDRVIITCRASQSVNRYLNWYQQKPGKAPKLLIYAASSLQGGVPSRFSGSGSGTDFTLTISSLQREDFATYYCQQSYRTRTFGQGTKVEIKR
notes: as for B1

The target in the assay is T1, Rhesus D antigen. Briefly: agglutination assay, Fab periplasmic extract on RhD(+)/RhD(-) RBC mix. On the procedure:
After each round of panning single colonies were picked for analysis of their binding properties to red blood cells in agglutination assays. Briefly, single colonies were inoculated into 2×YT/100 μg/mL carbenicillin/1% glucose and shaken overnight at 37° C. The next day, DeepWell plates were inoculated using 900 μl 2×YT/100 μg/mL carbenicillin/0.1% glucose and 10 μl overnight culture. The plates were shaken for two hours at 37° C., before Fab induction was performed with addition of 300 μl 2×YT/100 μg/mL carbenicillin/0.25 mM IPTG per well. The plate was shaken overnight at 30° C. The following day, the bacteria were pelleted by centrifugation (3200×g, 4° C., 10 minutes), and re-suspended in 100 μl of 0.8 M NaCl, 0.2×PBS, 8 mM EDTA, and incubated for 15 minutes on ice in order to perform a periplasmic extraction of the Fab fragments. The plate was transferred to −20° C. and finally the suspension was thawed and centrifugation was performed for 10 minutes at 4° C. and 3200×g. The periplasmic extract was used in ELISA assays for analysis of Fab content and in agglutination assays to evaluate the binding potential of the individual Fab fragments.
The agglutination assay was performed as follows: RhD(−) and RhD(+) RBC were mixed in a 1:1 ratio, and washed 3 times in PBS. After the final wash, the cell mix was re-suspended in 1% BSA in PBS at a density of 10% cells, 50 μl was added to each well of a 96-plate. Periplasmic extracts were added to the wells. As a positive control Rhesogamma P immunoglobulin (Aventis) was used according to the manufacturer's instructions. The plates were incubated for one hour at room temperature with gentle shaking. The cells were washed three times with PBS, before the secondary antibody was added (goat anti-human Fab/FITC conjugate, Sigma F5512) in a 1:100 dilution. The plates were left for agglutination for one hour at room temperature without shaking. Fab fragments positive in the agglutination assay was determined by visual inspection, and recorded by taking a picture. Quantization of the binding activity of the Fab fragments was performed by FACS analysis of the agglutination samples.
As for B1, the binding result is “binds”.
Under B2 stands “binds”; under B3, “binds”.
To B4 belongs “binds”.
B5: the binding result is listed as “binds”.
To B6 belongs “binds”; to B7, “binds”; to B8, “binds”.
Turning to B9, the binding result was “binds”.
Under B10 stands “binds”; under B11, “binds”; under B12, “binds”.
Under B13 stands “binds”.
Under B14 stands “binds”; under B15, “binds”.
Turning to B16, the binding result was “binds”.
As to B17, the binding result is listed as “binds”.
